Measured values from patent US20150329642A1.
Values belong to the substance of their own block, whether it stands above or below them.

Key:
[1] = biological target: human c-Met, membrane-bound on cells (human) (UniProt P08581); experiment: flow cytometry on A431 cells (PE goat anti-human IgG); top panel
[2] = biological target: cMetECDHis (human) (UniProt P08581); experiment: cross-block ELISA; competitor 006
[3] = biological target: cMetECDHis (human) (UniProt P08581); experiment: cross-block ELISA; competitor 181
[4] = biological target: recombinant human c-Met extracellular domain (R&D systems) (human) (UniProt P08581); experiment: competition ELISA, residual Europium-HGF signal at 615 nm at the lower plateau of the fit; sheet prints no competing mAb ~66000, no HGF-Europium ~600; upper panel
[5] = biological target: cMetECDHis (human) (UniProt P08581); experiment: cross-block ELISA; competitor 068
[6] = biological target: cMetECDHis (human) (UniProt P08581); experiment: cross-block ELISA; competitor 005
[7] = biological target: cMetECDHis (human) (UniProt P08581); experiment: cross-block ELISA; competitor 035
[8] = biological target: cMetECDHis (human) (UniProt P08581); experiment: cross-block ELISA; competitor 069
[9] = biological target: cMetECDHis (human) (UniProt P08581); experiment: cross-block ELISA; competitor 101
[10] = biological target: cMetECDHis (human) (UniProt P08581); experiment: cross-block ELISA; competitor 064
[11] = biological target: cMetECDHis (human) (UniProt P08581); experiment: cross-block ELISA; competitor 045
[12] = biological target: cMetECDHis (human) (UniProt P08581); experiment: cross-block ELISA; competitor 5D5
[13] = biological target: cMetECDHis (human) (UniProt P08581); experiment: cross-block ELISA; competitor 024
[14] = biological target: cMetECDHis (human) (UniProt P08581); experiment: cross-block ELISA; competitor G11-HZ
[15] = biological target: recombinant human c-Met extracellular domain (R&D systems) (human) (UniProt P08581); experiment: competition ELISA on coated recombinant c-Met extracellular domain; blocked ligand Europium-conjugated HGF; column headed EC50 on the sheet, called IC50 in paragraph 270; upper panel
[16] = biological target: cMetECDHis (human) (UniProt P08581); experiment: cross-block ELISA; competitor 098
[17] = biological target: cMetECDHis (human) (UniProt P08581); experiment: cross-block ELISA; competitor 022
[18] = biological target: cMetSEMA-567His8 (human) (UniProt P08581); experiment: TR-FRET; displacement of AlexaFluor-647-HGF from cMetSEMA-567His8
[19] = biological target: cMetECDHis (human) (UniProt P08581); experiment: cross-block ELISA; competitor 062
[20] = biological target: cMetECDHis (human) (UniProt P08581); experiment: cross-block ELISA; competitor 058
[21] = biological target: cMetECDHis (human) (UniProt P08581); experiment: BLI (Octet); antibody captured, cMetECDHis in solution
[22] = biological target: cMetECDHis (human) (UniProt P08581); experiment: cross-block ELISA; competitor 008

EC50 [1]: 0.966 nM
Substance: IgG4-5D5 (antibody)

residual binding, % of no competitor [2]: 58.8%
residual binding, % of no competitor [3]: 103%
Bottom [4]: 6350 RFU
residual binding, % of no competitor [5]: 97.8%
residual binding, % of no competitor [6]: 42.3%
residual binding, % of no competitor [7]: 98.1%
residual binding, % of no competitor [8]: 99.6%
residual binding, % of no competitor [9]: 97.9%
residual binding, % of no competitor [10]: 97.1%
residual binding, % of no competitor [11]: 83.9%
residual binding, % of no competitor [12]: 4.1%
residual binding, % of no competitor [13]: 94.2%
residual binding, % of no competitor [14]: 97.3%
IC50 [15]: 0.0244 µg/mL
residual binding, % of no competitor [16]: 97.6%
residual binding, % of no competitor [17]: 12.4%
% inhibition [18]: 95%
IC50 [18]: 0.2 µg/mL
residual binding, % of no competitor [19]: 97.6%
residual binding, % of no competitor [20]: 6.6%
Kd [21]: 5.86 nM
koff [21]: 0.00125 s⁻¹
kon [21]: 214000 M⁻¹ s⁻¹
residual binding, % of no competitor [22]: 90.2%
EC50 [1]: 0.531 nM
Substance: IgG1-5D5 (antibody)
